The values that follow come from patent US20170226216A1.

In this assay the target is recombinant human BCMA protein conjugated to IgG1 Fc-PE (human) (UniProt Q02223). As to the kind of experiment: flow cytometry, CAR T cells stained with BCMA-IgG1 Fc-PE.
Sequence of UniProt Q02223 (Q02223 1-54 limits assumed): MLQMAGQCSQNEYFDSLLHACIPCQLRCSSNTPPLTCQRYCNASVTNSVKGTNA

B1: humanized anti-BCMA-10.2 CAR (protein)
chain: DIVLTQSPASLAVSLGERATINCRASESVSVIGAHLIHWYQQKPGQPPKLLIYLASNLETGVPARFSGSGSGTDFTLTISSLQAEDAAIYYCLQSRIFPRTFGQGTKLEIKGSTSGSGKPGSGEGSTKGQVQLVQSGSELKKPGASVKVSCKASGYTFTDYSINWVRQAPGQGLEWMGWINTETREPAYAYDFRGRFVFSLDTSVSTAYLQISSLKAEDTAVYYCARDYSYAMDYWGQGTLVTVSSAAADTGLYICKVELMYPPPYYLGIGNGTQIYVIDPEPCPDSDFLLWILAAVSSGLFFYSFLLTAVSKRGRKKLLYIFKQPFMRPVQTTQEEDGCSCRFPEEEEGGCELRVKFSRSADAPAYQQGQNQLYNELNLGRREEYDVLDKRRGRDPEMGGKPRRKNPQEGLYNELQKDKMAEAYSEIGMKGERRRGKGHDGLYQGLSTATKDTYDALHMQALPPR
With B1, the T cells stained with BCMA-IgG1 Fc-PE (CAR surface expression), Donor 1 was 86.2.
